Data published in patent US20210113690A1 (BERLIN CHEMIE, published 2021).

Assays:
Test in all cases: peptide microarray, 8mer on the chip, 1 µg/mL LY75_A1, anti-human IgG Alexa 647
ELTYSNFH = target: T1, ELTYSNFH
T1 construct: LY75 8mer on the microarray
T1 peptide: ELTYSNFH
Procedure: (§1) The peptide microarray analysis was performed by LC Sciences, Houston Tex., in brief the method comprised the following steps: —Contiguous 8mer peptides of LY75 protein having […] spanning residues 216 to 1666 of the full length LY75 protein were synthesized and immobilized on a microarray chip. The chip comprised three panels such that the experiment was performed in triplicate. […] The binding assay was performed under the following conditions:—
(§2) The microarray comprising the contiguous peptides in triplicate was washed with 1 mL of binding buffer at 4° C. for 20 min. […] The array was again washed with 0.5 mL of washing buffer at 4° C. for 30 min then incubated with 25 ng/mL anti-human IgG Alexa 647 conjugate in binding buffer (pH 7.0) at 4° C. for 1 hr. The array was again washed with 0.5 mL of washing buffer at 4° C. for 30 min.

HFTYSRYP = target: T2, HFTYSRYP
T2 construct: LY75 8mer on the microarray
T2 peptide: HFTYSRYP
Procedure: as §1, §2

VKYLNNLY = target: T3, VKYLNNLY
T3 construct: LY75 8mer on the microarray
T3 peptide: VKYLNNLY
Procedure: as §1, §2

TYSNFHPL = target: T4, TYSNFHPL
T4 construct: LY75 8mer on the microarray
T4 peptide: TYSNFHPL
Procedure: as §1, §2

LNNLYKII = target: T5, LNNLYKII
T5 construct: LY75 8mer on the microarray
T5 peptide: LNNLYKII
Procedure: as §1, §2

KLSRLTYS = target: T6, KLSRLTYS
T6 construct: LY75 8mer on the microarray
T6 peptide: KLSRLTYS
Procedure: as §1, §2

EVKDCRSF = target: T7, EVKDCRSF
T7 construct: LY75 8mer on the microarray
T7 peptide: EVKDCRSF
Procedure: as §1, §2

SERHFVSL = target: T8, SERHFVSL
T8 construct: LY75 8mer on the microarray
T8 peptide: SERHFVSL
Procedure: as §1, §2

EFIYLRPF = target: T9, EFIYLRPF
T9 construct: LY75 8mer on the microarray; aa 773-780 counted from Region 3 (aa761-780)
T9 peptide: EFIYLRPF
Procedure: as §1, §2

FVSLCQKY = target: T10, FVSLCQKY
T10 construct: LY75 8mer on the microarray
T10 peptide: FVSLCQKY
Procedure: as §1, §2

YDDREFIY = target: T11, YDDREFIY
T11 construct: LY75 8mer on the microarray; aa 769-776 counted from Region 3 (aa761-780)
T11 peptide: YDDREFIY
Procedure: as §1, §2

RELTYSNF = target: T12, RELTYSNF
T12 construct: LY75 8mer on the microarray
T12 peptide: RELTYSNF
Procedure: as §1, §2

RRGWHFYD = target: T13, RRGWHFYD
T13 construct: LY75 8mer on the microarray; aa 763-770 counted from Region 3 (aa761-780)
T13 peptide: RRGWHFYD
Procedure: as §1, §2

YSRYPWHR = target: T14, YSRYPWHR
T14 construct: LY75 8mer on the microarray
T14 peptide: YSRYPWHR
Procedure: as §1, §2

DDHFTYSR = target: T15, DDHFTYSR
T15 construct: LY75 8mer on the microarray
T15 peptide: DDHFTYSR
Procedure: as §1, §2

KKLSRLTY = target: T16, KKLSRLTY
T16 construct: LY75 8mer on the microarray
T16 peptide: KKLSRLTY
Procedure: as §1, §2

NGSRWIQY = target: T17, NGSRWIQY
T17 construct: LY75 8mer on the microarray
T17 peptide: NGSRWIQY
Procedure: as §1, §2

YFHQHSIL = target: T18, YFHQHSIL
T18 construct: LY75 8mer on the microarray
T18 peptide: YFHQHSIL
Procedure: as §1, §2

DREFIYLR = target: T19, DREFIYLR
T19 construct: LY75 8mer on the microarray; aa 771-778 counted from Region 3 (aa761-780)
T19 peptide: DREFIYLR
Procedure: as §1, §2

LSRLTYSS = target: T20, LSRLTYSS
T20 construct: LY75 8mer on the microarray
T20 peptide: LSRLTYSS
Procedure: as §1, §2

VYFHQHSI = target: T21, VYFHQHSI
T21 construct: LY75 8mer on the microarray
T21 peptide: VYFHQHSI
Procedure: as §1, §2

SRYPWHRF = target: T22, SRYPWHRF
T22 construct: LY75 8mer on the microarray
T22 peptide: SRYPWHRF
Procedure: as §1, §2

HRFPVTFG = target: T23, HRFPVTFG
T23 construct: LY75 8mer on the microarray
T23 peptide: HRFPVTFG
Procedure: as §1, §2

SLSCYKVF = target: T24, SLSCYKVF
T24 construct: LY75 8mer on the microarray
T24 peptide: SLSCYKVF
Procedure: as §1, §2

GWHFYDDR (765-772) = target: T25, GWHFYDDR (765-772) (human)
T25 construct: Tryptic peptide of recombinant LY75, found by LC-MS/MS after pull down
T25 peptide: GWHFYDDR
Procedure: as §1, §2

YLNNLYKI = target: T26, YLNNLYKI
T26 construct: LY75 8mer on the microarray
T26 peptide: YLNNLYKI
Procedure: as §1, §2

Measured: binding result

B1: LY75_A1 monoclonal antibody (antibody, human IgG1, kappa, V domains shown)
VH: EVQLVESGGGLVKPGGSLRLSCAASGFTYSNAWMSWVRQAPGKGLEWVGRIKSKTDGGTTDYAAPVQGRFTISRDDSKNTLYLQMNSLKTEDTAVYYCTIFGVVSFDYWGQGTLVTVSS
VL: DVQMTQSPSSLSASVGDRVTITCRASQSISDYLSWYQQRPGKAPNLLIYAASNLKTGVPSRFSGSGSGTDFTLTISTLQPEDFATYYCQQSYRSPWTFGQGTKVEIKR
notes: also called LY75A1 antibody; antibody LY75_A1
binds: all assays above
